Source: PMC4482583, “The Dimerization State of the Mammalian High Mobility Group Protein AT-Hook 2 (HMGA2)” (PLoS ONE, 2015)
No end group written: not given here. TMR = tetramethylrhodamine-5-maleimide

Legend:
[1] = biological target: the molecule itself; assay: cross-linking; EDC (2 mM, zero-length) in MES buffer (10 mM MES, pH 5.5, 50 mM NaCl), 2 hours at 24°C; 29-116 μM protein; 15% SDS-PAGE, Coomassie
[2] = biological target: the molecule itself; assay: FRET or BRET; 20 nM HMGA2-FM titrated with HMGA2-TMR in 50 mM Tris-HCl (pH 8.0), 200 mM NaCl; excitation 492 nm, read at 518 nm
HMGA2Δ95–108 = biological target: T1, HMGA2Δ95–108 (mouse, UniProt P52927 1-94); assay: SEC; CTP-TMR incubated with HMGA2Δ95–108 for 30 minutes at 24°C, resolved on Sephacryl S-100 HR (1×50 cm) in BPES buffer; OD556 and SDS-PAGE of fractions; details: both partners purified
T1 construct: also called mutant that lacks the negatively charged C-terminus; source: made by PCR-based site directed mutagenesis, purified as described previously [26]
T1 sequence (looked up): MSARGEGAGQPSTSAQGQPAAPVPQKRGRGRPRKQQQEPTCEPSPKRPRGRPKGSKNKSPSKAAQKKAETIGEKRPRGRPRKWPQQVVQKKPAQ

[3] = biological target: the molecule itself; assay: cross-linking; EDC cross-linking of the cysteineless mutant; data not shown

B1: mammalian high mobility group protein AT-hook 2 (HMGA2) (natural protein, mouse, UniProt P52927 1-108, looked up)
chain: MSARGEGAGQPSTSAQGQPAAPVPQKRGRGRPRKQQQEPTCEPSPKRPRGRPKGSKNKSPSKAAQKKAETIGEKRPRGRPRKWPQQVVQKKPAQETEETSSQESAEED
notes: also called mouse HMGA2; recombinant HMGA2; source: recombinant, purified as described previously [26]
stoichiometry N [1]: 2

B2: HMGA2 labeled with fluorescein-5-maleimide (HMGA2-FM) or tetramethylrhodamine-5-maleimide (HMGA2-TMR) (natural protein, mouse, UniProt P52927 1-108, looked up)
chain: MSARGEGAGQPSTSAQGQPAAPVPQKRGRGRPRKQQQEPTCEPSPKRPRGRPKGSKNKSPSKAAQKKAETIGEKRPRGRPRKWPQQVVQKKPAQETEETSSQESAEED
modifications: fluorescein-5-maleimide (FM) or tetramethylrhodamine-5-maleimide (TMR) on the cysteine residue
notes: labeled at its one cysteine residue; also called HMG-TMR; source: recombinant HMGA2, labeled with TMR or FM, purified (Sephadex G-50 spin columns, dialysis)
stoichiometry N [2]: 2

B3: C-terminal peptide (CTP) of HMGA2 labeled with tetramethylrhodamine-5-maleimide (CTP-TMR) (peptide)
peptide: C(TMR)ETEETSSQESAEED
notes: first residue of the printed peptide H-CETEETSSQESAEED-OH; the cysteine that carries the label; the negatively charged C-terminus of HMGA2, mouse; 14 residues; also called the C-terminal peptide; source: synthetic peptide (custom-synthesized by Advanced ChemTech, Inc.), labeled with TMR, purified on SP-sepharose
binding result (HMGA2Δ95–108): binds

B4: HMGA2C41G (natural protein, mouse, UniProt P52927 1-108, looked up)
chain: MSARGEGAGQPSTSAQGQPAAPVPQKRGRGRPRKQQQEPTGEPSPKRPRGRPKGSKNKSPSKAAQKKAETIGEKRPRGRPRKWPQQVVQKKPAQETEETSSQESAEED
notes: also called cysteineless mutant protein; source: made by PCR-based site directed mutagenesis, purified as described previously [26]
stoichiometry N [3]: 2
